The values below come from paper PMC5691035 (Nature Communications, 2017).

The labels stand for the following.
B1: 1269 Fab (Fab, V domains shown)
VH: EVQLVESGGGLVQSGGSLRLSCAASGFTFSRNAMNWVRQAPGKGLEWVSTISGSGDSTYYADSVKGRFTISRDNSKNTLYLQVNSLRAEDTAVYYCAKGDYYFDSGSYSFGMDVWGQGTTVTVSS
VL: EIVLTQSPGTLSLSPGERATLSCRTSQSVSSSYLAWYQQKPGQAPRLLMYGASSRATGIPDRFSGSGSGTDFTLTISRLEPEDFAVYYCQQYGNSFGQGTRLEIK
notes: source: HEK293F, transiently expressed, purified (KappaSelect or LambdaSelect, MonoS, Superdex 200)
B2: 1262 Fab (Fab, V domains shown)
VH: QVQLQESGPGLVKPSGTLSLTCAVSGGSISSSHWWSWVRQPPGKGLEWVGEISLSGSTHYGPSLKSRVSISLDKSMNHFSLRLSSVTAADTAVYYCARESRFYGAYFDYWGQGTLVTVSS
VL: DIQLTQSPSFLSASVGDRVTITCWASQGINSYLAWYQQKPGKTPKLLIYAASTLQSGVPSRFSGSGSGTEFTLTISSLQPEDFATYYCQQLNSYPCSFGQGTTLEIK
notes: as for B1
B3: 1268 Fab (Fab, V domains shown)
VH: EVQLVESGGGLVKPGGSLRLSCAASGFTFSRYSMNWVRQAPGKGLEWVSSISSRSSYKYYVDSVKGRFTISRDNAKNSLYLQMNSLRAEDTAVYYCARDDYGSGSYYYNWLDPWGQGTLVTVSS
VL: B2 VL with N30S, Y32F, T43A, Q55E, C96R, S97T, T103K, L104V
notes: as for B1
B4: 1260 Fab (Fab, V domains shown)
VH: QVQLVQSGAEVKKPGASVKVSCRASGYIFTSYGFSWVRQAPGQGLEWMGWISAYNGNTDYSQKLQGRVTMTTDTSTNTVYMELRTLQSDDTAVYYCARDRGDRLYYYYYYGMDVWGQGTTVTVSS
VL: not shown
notes: as for B1
B5: 1202 Fab (Fab, V domains shown)
VH: QVQLVESGGDLVKPGGSLRLSCAASGFTFSDHYMNWIRQAPGKGLEWVSYISSSGSTIYYSDSVKGRFTISRDNAKYLLSLQMNSLRAEDTAVYFCARDPMVRGFHDAFDIWGQGTMVTVSS
VL: SYELTQPPSVSVSPGQTASITCSGDKLGDKYASWYQQKPGQSPVLVIFQDNKRPSGIPERFSGSNSGNTATLTISETQAMDEADYYCQAWDISTAVFGTGTNVT
notes: source: HEK293F, transiently expressed, purified (LambdaSelect or KappaSelect, MonoS, Superdex 200)
B6: 1276 Fab (Fab, V domains shown)
VH: not shown
VL: SYVLTQPPSVSVAPGKTAKITCGGNNIGSKSVHWYQQKPGQAPVLVMYYDFDRPSGIPERFSGSNSGNTATLTISRVEAEDEADYYCQVWDSDRYWVFGGGTKLTVL
notes: as for B5
B7: 1190 Fab (Fab, V domains shown)
VH: not shown
VL: SYVLTQPPSVSVAPGQTARITCGGSNIGSKSVHWYQQKPGQTPMLVIYYDYDRPSGIPERFSGSNSGSTATLTISRVEAGDEADYYCQVWDSSSDHVWVFGGGTTLTVL
notes: as for B5
B8: 1245 Fab (Fab, V domains shown)
VH: QVQLVQSGGEVKKPGASVKVSCKASGYTFTSYGISWVRQAPGQGLEWMGWISAYNGNRKYAQKVQGRVSMTIDTHTSTANMELRSLRSDDTAVYYCAKDRGDGDYRYYYYGMDVWGQGTTVTVSS
VL: not shown
notes: as for B1
B9: 1266 Fab (Fab, V domains shown)
VH: QVQLQQSGPGLVKPSQTLSLTCAISGDSVSSNSAAWNWIRQSPSRGLEWLGRTYYRSKWYNDYAVSVKSRITINADTSKNQFSLQLNSVTPEDTAVYYCVRDLLGSSGWYVFFDNWGQGTLVTVSS
VL: SYELTQPPSVSVSPGQSARITCSGDALPMKYAYWYQQKSGQAPVLVIYEDSKRPSGIPERFSGSSSGTMATLTISGAQVEDEADYYCFSTDSSGNHRVFGGGTKLT
notes: as for B5
B10: 1267 Fab (Fab, V domains shown)
VH: QVQLQQSGPGLVKPSQTLSLTCAISGDSVSSNSAAWNWIRQSPSRGLEWLGRTYYRSKWYNDYAVSVRGRITINPDTSKNHFSLQLNSVTPEDTAVYFCARDLMTNSGWYVYFDCWGQGTLVTVSS
VL: B9 VL
notes: as for B5
B11: 1269 IgG (antibody, V domains shown)
VH: B1 VH
VL: B1 VL
notes: IgG1; also called mAb 1269; source: HEK293, transient, purified from conditioned medium (Protein A); synthesized by LakePharma
B12: 1269 Fab (Fab, V domains shown)
VH: B1 VH
VL: B1 VL
notes: also called mAb 1269; source: HEK293F, transient, purified (KappaSelect or LambdaSelect, MonoS, SEC)
B13: 1268 Fab (Fab, V domains shown)
VH: B3 VH
VL: B2 VL with N30S, Y32F, T43A, Q55E, C96R, S97T, T103K, L104V
notes: also called mAb 1268; source: HEK293F, transient, purified (KappaSelect or LambdaSelect, MonoS, SEC)
B14: 1262 Fab (Fab, V domains shown)
VH: B2 VH
VL: B2 VL
notes: also called mAb 1262; source: HEK293F, transient, purified (KappaSelect or LambdaSelect, MonoS, SEC)
B15: 1260 Fab (Fab, V domains shown)
VH: B4 VH
VL: not shown
notes: also called mAb 1260; source: HEK293F, transient, purified (KappaSelect or LambdaSelect, MonoS, SEC)
B16: 1202 Fab (Fab, V domains shown)
VH: B5 VH
VL: B5 VL
notes: also called mAb 1202; source: HEK293F, transient, purified (KappaSelect or LambdaSelect, MonoS, SEC)
B17: 1245 IgG (antibody, V domains shown)
VH: B8 VH
VL: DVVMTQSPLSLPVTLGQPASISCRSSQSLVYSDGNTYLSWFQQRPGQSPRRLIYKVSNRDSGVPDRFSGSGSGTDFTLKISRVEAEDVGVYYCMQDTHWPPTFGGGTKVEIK
notes: IgG1; also called mAb 1245; source: HEK293, transient, purified from conditioned medium (Protein A); synthesized by LakePharma
B18: 1245 Fab (Fab, V domains shown)
VH: B8 VH
VL: not shown
notes: also called mAb 1245; source: HEK293F, transient, purified (KappaSelect or LambdaSelect, MonoS, SEC)
B19: 1267 Fab (Fab, V domains shown)
VH: B10 VH
VL: B9 VL
notes: also called mAb 1267; source: HEK293F, transient, purified (KappaSelect or LambdaSelect, MonoS, SEC)
B20: 1266 Fab (Fab, V domains shown)
VH: B9 VH
VL: B9 VL
notes: also called mAb 1266; source: HEK293F, transient, purified (KappaSelect or LambdaSelect, MonoS, SEC)

Positions count from the first letter of the chain named.

Sequence of Pfs25, monomeric, produced in Nicotiana benthamiana (Plasmodium falciparum (P13829 22-193): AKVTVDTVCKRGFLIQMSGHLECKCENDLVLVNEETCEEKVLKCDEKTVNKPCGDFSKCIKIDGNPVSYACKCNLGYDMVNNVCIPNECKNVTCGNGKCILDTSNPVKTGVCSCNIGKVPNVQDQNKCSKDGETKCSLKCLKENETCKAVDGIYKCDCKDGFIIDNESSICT

The first assay has as its target Pfs25, monomeric, produced in Nicotiana benthamiana (Plasmodium falciparum (NF54; identical …, UniProt P13829). As to the kind of experiment: BLI. Conditions: both partners purified.
Usually koff stands for the first-order rate constant of dissociation. A lower koff goes with a long-lived complex. The term kon denotes the second-order rate constant of association. In the case of B1, the off-rate constant (koff) stood at 0.00084 s⁻¹ and the kon stood at 220000 M⁻¹ s⁻¹. What is called Kd is the constant that tells how readily two partners part at equilibrium. Higher therefore signals lower affinity. In turn, B2 yielded a Kd of 12 nM, a koff of 0.0011 s⁻¹ and an on-rate (kon) of 80000 M⁻¹ s⁻¹. On the same counts, the results for B3 are 67 nM, 0.006 s⁻¹ and 93000 M⁻¹ s⁻¹. On to B4, for which the Kd is 41 nM, the koff stood at 0.00093 s⁻¹ and the kon came out at 23000 M⁻¹ s⁻¹. The like results for B5 were, in that order, 35 nM, 0.016 s⁻¹ and 480000 M⁻¹ s⁻¹. The molecule B6 gave a koff of 0.0037 s⁻¹ and a kon of 210000 M⁻¹ s⁻¹.

B7 came in with a koff of 0.0021 s⁻¹ and an on-rate (kon) of 300000 M⁻¹ s⁻¹. Consider B8, for which the koff was determined as 0.00038 s⁻¹ and the kon worked out at 22000 M⁻¹ s⁻¹. In turn, B9 yielded a Kd of 31 nM, a koff of 0.012 s⁻¹ and a kon of 420000 M⁻¹ s⁻¹. The like results for B10 were, in that order, 7.9 nM, 0.0032 s⁻¹ and 430000 M⁻¹ s⁻¹.

The target in a further assay is Pfs25, monomeric, Nicotiana benthamiana-produced (Plasmodium falciparum (NF54; identical …, UniProt P13829). As to the kind of experiment: BLI. Conditions: both partners purified.
Sequence of Pfs25, monomeric, Nicotiana benthamiana-produced (Plasmodium falciparum (P13829 17-196): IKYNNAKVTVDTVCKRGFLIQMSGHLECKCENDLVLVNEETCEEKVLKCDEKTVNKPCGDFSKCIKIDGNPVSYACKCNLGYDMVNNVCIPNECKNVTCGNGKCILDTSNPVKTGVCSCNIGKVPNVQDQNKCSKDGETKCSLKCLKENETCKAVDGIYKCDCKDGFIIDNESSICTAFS
Turning to B11, the Kd was under 0.001 nM. B12 showed a Kd of 3.7 nM. As for B13, the binding result is “binds”. Still for that read-out and setting: the value for B14 was “binds”; that for B15 was “binds”; that for B16 was “binds”. For B17, the Kd is under 0.001 nM. In turn, B18 showed a Kd of 31 nM. Regarding B19, the binding result is recorded as “binds”. Regarding B20, the binding result is listed as “binds”.
